Values quoted from earlier work as cited in article PMC6842113.

Target: PSD-95 PDZ3-SH3-GK (Homo sapiens) (UniProt P78352)

Substance: SynGAP C-terminus (from UniProt Q9QUH6)
- Kd: 200 nM
